± gives the standard deviation of the averaged measurements.
How the values were obtained:
MCF7 = test: percentage of EdU-negative (G0-arrested) nuclei per well, 72 h; higher = more G0 arrest; conditions: reference: sequence is the full UniProt precursor, the tested protein was the secreted form or ectodomain
hTERT-HMEC = test: as above; conditions: reference: sequence is the full UniProt precursor, the tested protein was the secreted form or ectodomain
[1] = protein concentration 0.0059525 µM
[2] = protein concentration 0.059525 µM
[3] = protein concentration 0.0174286 µM
[4] = protein concentration 0.174286 µM
[5] = protein concentration 0.00592 µM
[6] = protein concentration 0.0592 µM
[7] = protein concentration 0.0257143 µM
[8] = protein concentration 0.257143 µM
[9] = protein concentration 0.0140425 µM
[10] = protein concentration 0.140425 µM
[11] = protein concentration 0.0197143 µM
[12] = protein concentration 0.197143 µM
[13] = protein concentration 0.0225 µM
[14] = protein concentration 0.03092 µM
[15] = protein concentration 0.3092 µM
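Note: secreted proteins added to cultured cells, EdU pulse at the end, nuclei found by Hoechst imaging, EdU status from nuclear versus surrounding ring intensity ratio, PBS as neutral control.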

## MGVPFFSSLRCMVDLGPCWAGGLTAEMKLLLALAGLLAILATPQPSEGAAPAVLGEVDTSLVLSSMEEAKQLVDKAYKERRESIKQRLRSGSASPMELLSYFKQPVAATRTAVRAADYLHVALDLLERKLRSLWRRPFNVTDVLTPAQLNVLSKSSGCAYQDVGVTCPEQDKYRTITGMCNNRRSPTLGASNRAFVRWLPAEYEDGFSLPYGWTPGVKRNGFPVALARAVSNEIVRFPTDQLTPDQERSLMFMQWGQLLDHDLDFTPEPAARASFVTGVNCETSCVQQPPCFPLKIPPNDPRIKNQADCIPFFRSCPACPGSNITIRNQINALTSFVDASMVYGSEEPLARNLRNMSNQLGLLAVNQRFQDNGRALLPFDNLHDDPCLLTNRSARIPCFLAGDTRSSEMPELTSMHTLLLREHNRLATELKSLNPRWDGERLYQEARKIVGAMVQIITYRDYLPLVLGPTAMRKYLPTYRSYNDSVDPRIANVFTNAFRYGHTLIQPFMFRLDNRYQPMEPNPRVPLSRVFFASWRVVLEGGIDPILRGLMATPAKLNRQNQIAVDEIRERLFEQVMRIGLDLPALNMQRSRDHGLPGYNAWRRFCGLPQPETVGQLGTVLRNLKLARKLMEQYGTPNNIDIWMGGVSEPLKRKGRVGPLLACIIGTQFRKLRDGDRFWWENEGVFSMQQRQALAQISLPRIICDNTGITTVSKNNIFMSNSYPRDFVNCSTLPALNLASWREAS
MCF7; [1]
  percentage of EdU-negative: 24.8 ± 1.3%
MCF7; [2]
  percentage of EdU-negative: 26.8 ± 0.65%
hTERT-HMEC; [1]
  percentage of EdU-negative: 5.02 ± 0.23%
hTERT-HMEC; [2]
  percentage of EdU-negative: 4.74 ± 0.28%

## MGWLPLLLLLTQCLGVPGQRSPLNDFQVLRGTELQHLLHAVVPGPWQEDVADAEECAGRCGPLMDCRAFHYNVSSHGCQLLPWTQHSPHTRLRRSGRCDLFQKKDYVRTCIMNNGVGYRGTMATTVGGLPCQAWSHKFPNDHKYTPTLRNGLEENFCRNPDGDPGGPWCYTTDPAVRFQSCGIKSCREAACVWCNGEEYRGAVDRTESGRECQRWDLQHPHQHPFEPGKFLDQGLDDNYCRNPDGSERPWCYTTDPQIEREFCDLPRCGSEAQPRQEATTVSCFRGKGEGYRGTANTTTAGVPCQRWDAQIPHQHRFTPEKYACKDLRENFCRNPDGSEAPWCFTLRPGMRAAFCYQIRRCTDDVRPQDCYHGAGEQYRGTVSKTRKGVQCQRWSAETPHKPQFTFTSEPHAQLEENFCRNPDGDSHGPWCYTMDPRTPFDYCALRRCADDQPPSILDPPDQVQFEKCGKRVDRLDQRRSKLRVVGGHPGNSPWTVSLRNRQGQHFCGGSLVKEQWILTARQCFSSCHMPLTGYEVWLGTLFQNPQHGEPSLQRVPVAKMVCGPSGSQLVLLKLERSVTLNQRVALICLPPEWYVVPPGTKCEIAGWGETKGTGNDTVLNVALLNVISNQECNIKHRGRVRESEMCTEGLLAPVGACEGDYGGPLACFTHNCWVLEGIIIPNRVCARSRWPAVFTRVSVFVDWIHKVMRLG [G3XAK1]
MCF7; [3]
  percentage of EdU-negative: 22.6 ± 1.9%
MCF7; [4]
  percentage of EdU-negative: 27.79 ± 0.11%
hTERT-HMEC; [3]
  percentage of EdU-negative: 4.79 ± 0.57%
hTERT-HMEC; [4]
  percentage of EdU-negative: 5.55 ± 0.076%

## MHLIDYLLLLLVGLLALSHGQLHVEHDGESCSNSSHQQILETGEGSPSLKIAPANADFAFRFYYLIASETPGKNIFFSPLSISAAYAMLSLGACSHSRSQILEGLGFNLTELSESDVHRGFQHLLHTLNLPGHGLETRVGSALFLSHNLKFLAKFLNDTMAVYEAKLFHTNFYDTVGTIQLINDHVKKETRGKIVDLVSELKKDVLMVLVNYIYFKALWEKPFISSRTTPKDFYVDENTTVRVPMMLQDQEHHWYLHDRYLPCSVLRMDYKGDATVFFILPNQGKMREIEEVLTPEMLMRWNNLLRKRNFYKKLELHLPKFSISGSYVLDQILPRLGFTDLFSKWADLSGITKQQKLEASKSFHKATLDVDEAGTEAAAATSFAIKFFSAQTNRHILRFNRPFLVVIFSTSTQSVLFLGKVVDPTKP
MCF7; protein concentration 0.022 µM
  percentage of EdU-negative: 25 ± 1.3%
MCF7; protein concentration 0.22 µM
  percentage of EdU-negative: 28.9 ± 0.99%
hTERT-HMEC; protein concentration 0.022 µM
  percentage of EdU-negative: 4.571 ± 0.028%
hTERT-HMEC; protein concentration 0.22 µM
  percentage of EdU-negative: 4.09 ± 0.62%

## MHLLGFFSVACSLLAAALLPGPREAPAAAAAFESGLDLSDAEPDAGEATAYASKDLEEQLRSVSSVDELMTVLYPEYWKMYKCQLRKGGWQHNREQANLNSRTEETIKFAAAHYNTEILKSIDNEWRKTQCMPREVCIDVGKEFGVATNTFFKPPCVSVYRCGGCCNSEGLQCMNTSTSYLSKTLFEITVPLSQGPKPVTISFANHTSCRCMSKLDVYRQVHSIIRRSLPATLPQCQAANKTCPTNYMWNNHICRCLAQEDFMFSSDAGDDSTDGFHDICGPNKELDEETCQCVCRAGLRPASCGPHKELDRNSCQCVCKNKLFPSQCGANREFDENTCQCVCKRTCPRNQPLNPGKCACECTESPQKCLLKGKKFHHQTCSCYRRPCTNRQKACEPGFSYSEEVCRCVPSYWKRPQMS
MCF7; [5]
  percentage of EdU-negative: 25.4 ± 0.75%
MCF7; [6]
  percentage of EdU-negative: 25.31 ± 0.24%
hTERT-HMEC; [5]
  percentage of EdU-negative: 5.07 ± 0.77%
hTERT-HMEC; [6]
  percentage of EdU-negative: 5.93 ± 0.55%

## MHLLLFQLLVLLPLGKTTRHQDGRQNQSSLSPVLLPRNQRELPTGNHEEAEEKPDLFVAVPHLVATSPAGEGQRQREKMLSRFGRFWKKPEREMHPSRDSDSEPFPPGTQSLIQPIDGMKMEKSPLREEAKKFWHHFMFRKTPASQGVILPIKSHEVHWETCRTVPFSQTITHEGCEKVVVQNNLCFGKCGSVHFPGAAQHSHTSCSHCLPAKFTTMHLPLNCTELSSVIKVVMLVEECQCKVKTEHEDGHILHAGSQDSFIPGVSA
MCF7; [7]
  percentage of EdU-negative: 23.4 ± 3.4%
MCF7; [8]
  percentage of EdU-negative: 24.2 ± 0.59%
hTERT-HMEC; [7]
  percentage of EdU-negative: 4.67 ± 0.26%
hTERT-HMEC; [8]
  percentage of EdU-negative: 5.44 ± 1.3%

## MHLRLISWLFIILNFMEYIGSQNASRGRRQRRMHPNVSQGCQGGCATCSDYNGCLSCKPRLFFALERIGMKQIGVCLSSCPSGYYGTRYPDINKCTKCKADCDTCFNKNFCTKCKSGFYLHLGKCLDNCPEGLEANNHTMECVSIVHCEVSEWNPWSPCTKKGKTCGFKRGTETRVREIIQHPSAKGNLCPPTNETRKCTVQRKKCQKGERGKKGRERKRKKPNKGESKEAIPDSKSLESSKEIPEQRENKQQQKKRKVQDKQKSVSVSTVH [Q9BXY4]
MCF7; [9]
  percentage of EdU-negative: 23.8 ± 0.26%
MCF7; [10]
  percentage of EdU-negative: 24.3 ± 1.6%
hTERT-HMEC; [9]
  percentage of EdU-negative: 4.43 ± 0.65%
hTERT-HMEC; [10]
  percentage of EdU-negative: 5.27 ± 0.29%

## MHPHRDPRGLWLLLPSLSLLLFEVARAGRAVVSCPAACLCASNILSCSKQQLPNVPHSLPSYTALLDLSHNNLSRLRAEWTPTRLTQLHSLLLSHNHLNFISSEAFSPVPNLRYLDLSSNQLRTLDEFLFSDLQVLEVLLLYNNHIMAVDRCAFDDMAQLQKLYLSQNQISRFPLELVKEGAKLPKLTLLDLSSNKLKNLPLPDLQKLPAWIKNGLYLHNNPLNCDCELYQLFSHWQYRQLSSVMDFQEDLYCMNSKKLHNVFNLSFLNCGEYKERAWEAHLGDTLIIKCDTKQQGMTKVWVTPSNERVLDEVTNGTVSVSKDGSLLFQQVQVEDGGVYTCYAMGETFNETLSVELKVHNFTLHGHHDTLNTAYTTLVGCILSVVLVLIYLYLTPCRCWCRGVEKPSSHQGDSLSSSMLSTTPNHDPMAGGDKDDGFDRRVAFLEPAGPGQGQNGKLKPGNTLPVPEATGKGQRRMSDPESVSSVFSDTPIVV [Q86WK6]
MCF7; [11]
  percentage of EdU-negative: 21.9 ± 0.6%
MCF7; [12]
  percentage of EdU-negative: 29.5 ± 1.3%
hTERT-HMEC; [11]
  percentage of EdU-negative: 6.07 ± 0.64%
hTERT-HMEC; [12]
  percentage of EdU-negative: 17.3 ± 0.43%

## MHQMNAKMHFRFVFALLIVSFNHDVLGKNLKYRIYEEQRVGSVIARLSEDVADVLLKLPNPSTVRFRAMQRGNSPLLVVNEDNGEISIGATIDREQLCQKNLNCSIEFDVITLPTEHLQLFHIEVEVLDINDNSPQFSRSLIPIEISESAAVGTRIPLDSAFDPDVGENSLHTYSLSANDFFNIEVRTRTDGAKYAELIVVRELDRELKSSYELQLTASDMGVPQRSGSSILKISISDSNDNSPAFEQQSYIIQLLENSPVGTLLLDLNATDPDEGANGKIVYSFSSHVSPKIMETFKIDSERGHLTLFKQVDYEITKSYEIDVQAQDLGPNSIPAHCKIIIKVVDVNDNKPEININLMSPGKEEISYIFEGDPIDTFVALVRVQDKDSGLNGEIVCKLHGHGHFKLQKTYENNYLILTNATLDREKRSEYSLTVIAEDRGTPSLSTVKHFTVQINDINDNPPHFQRSRYEFVISENNSPGAYITTVTATDPDLGENGQVTYTILESFILGSSITTYVTIDPSNGAIYALRIFDHEEVSQITFVVEARDGGSPKQLVSNTTVVLTIIDENDNVPVVIGPALRNNTAEITIPKGAESGFHVTRIRAIDRDSGVNAELSCAIVAGNEENIFIIDPRSCDIHTNVSMDSVPYTEWELSVIIQDKGNPQLHTKVLLKCMIFEYAESVTSTAMTSVSQASLDVSMIIIISLGAICAVLLVIMVLFATRCNREKKDTRSYNCRVAESTYQHHPKRPSRQIHKGDITLVPTINGTLPIRSHHRSSPSSSPTLERGQMGSRQSHNSHQSLNSLVTISSNHVPENFSLELTHATPAVEQVSQLLSMLHQGQYQPRPSFRGNKYSRSYRYALQDMDKFSLKDSGRGDSEAGDSDYDLGRDSPIDRLLGEGFSDLFLTDGRIPAAMRLCTEECRVLGHSDQCWMPPLPSPSSDYRSNMFIPGEEFPTQPQQQHPHQSLEDDAQPADSGEKKKSFSTFGKDSPNDEDTGDTSTSSLLSEMSSVFQRLLPPSLDTYSECSEVDRSNSLERRKGPLPAKTVGYPQGVAAWAASTHFQNPTTNCGPPLGTHSSVQPSSKWLPAMEEIPENYEEDDFDNVLNHLNDGKHELMDASELVAEINKLLQDVRQS [Q9HCL0]
MCF7; [13]
  percentage of EdU-negative: 28.4 ± 2%
MCF7; protein concentration 0.225 µM
  percentage of EdU-negative: 32.5 ± 0.58%
hTERT-HMEC; [13]
  percentage of EdU-negative: 3.86 ± 0.13%
hTERT-HMEC; protein concentration 0.225 µM
  percentage of EdU-negative: 11.6 ± 1.6%

## MHSFPPLLLLLFWGVVSHSFPATLETQEQDVDLVQKYLEKYYNLKNDGRQVEKRRNSGPVVEKLKQMQEFFGLKVTGKPDAETLKVMKQPRCGVPDVAQFVLTEGNPRWEQTHLTYRIENYTPDLPRADVDHAIEKAFQLWSNVTPLTFTKVSEGQADIMISFVRGDHRDNSPFDGPGGNLAHAFQPGPGIGGDAHFDEDERWTNNFREYNLHRVAAHELGHSLGLSHSTDIGALMYPSYTFSGDVQLAQDDIDGIQAIYGRSQNPVQPIGPQTPKACDSKLTFDAITTIRGEVMFFKDRFYMRTNPFYPEVELNFISVFWPQLPNGLEAAYEFADRDEVRFFKGNKYWAVQGQNVLHGYPKDIYSSFGFPRTVKHIDAALSEENTGKTYFFVANKYWRYDEYKRSMDPGYPKMIAHDFPGIGHKVDAVFMKDGFFYFFHGTRQYKFDPKTKRILTLQKANSWFNCRKN
MCF7; [14]
  percentage of EdU-negative: 24.3 ± 3.2%
MCF7; [15]
  percentage of EdU-negative: 26.43 ± 0.08%
hTERT-HMEC; [14]
  percentage of EdU-negative: 4.22 ± 0.79%
hTERT-HMEC; [15]
  percentage of EdU-negative: 6.403 ± 0.048%
